The values below come from article PMC10950542 (Nature structural & molecular biology, 2024).

The chains are these.
B1: T4 bacteriophage clamp-loader ATPase subunit gp44 (wild type) (natural protein)
chain: MITVNEKEHILEQKYRPSTIDECILPAFDKETFKSITSKGKIPHIILHSPSPGTGKTTVAKALCHDVNADMMFVNGSDCKIDFVRGPLTNFASAASFDGRQKVIVIDEFDRSGLAESQRHLRSFMEAYSSNCSIIITANNIDGIIKPLQSRCRVITFGQPTDEDKIEMMKQMIRRLTEICKHEGIAIADMKVVAALVKKNFPDFRKTIGELDSYSSKGVLDAGILSLVTNDRGAIDDVLESLKNKDVKQLRALAPKYAADYSWFVGKLAEEIYSRVTPQSIIRMYEIVGENNQYHGIAANTELHLAYLFIQLACEMQWK
B3: T4 bacteriophage clamp-loader ATPase subunit gp44 D110C (natural protein)
chain: MITVNEKEHILEQKYRPSTIDECILPAFDKETFKSITSKGKIPHIILHSPSPGTGKTTVAKALCHDVNADMMFVNGSDCKIDFVRGPLTNFASAASFDGRQKVIVIDEFCRSGLAESQRHLRSFMEAYSSNCSIIITANNIDGIIKPLQSRCRVITFGQPTDEDKIEMMKQMIRRLTEICKHEGIAIADMKVVAALVKKNFPDFRKTIGELDSYSSKGVLDAGILSLVTNDRGAIDDVLESLKNKDVKQLRALAPKYAADYSWFVGKLAEEIYSRVTPQSIIRMYEIVGENNQYHGIAANTELHLAYLFIQLACEMQWK
B4: T4 bacteriophage sliding clamp (gp45) (natural protein)
chain: MKLSKDTTALLKNFATINSGIMLKSGQFIMTRAVNGTTYAEANISDVIDFDVAIYDLNGFLGILSLVNDDAEISQSEDGNIKIADARSTIFWPAADPSTVVAPNKPIPFPVASAVTEIKAEDLQQLLRVSRGLQIDTIAITVKEGKIVINGFNKVEDSALTRVKYSLTLGDYDGENTFNFIINMANMKMQPGNYKLLLWAKGKQGAAKFEGEHANYVVALEADSTHDF

Series [1] deals with the molecule itself. In words: crystal structure.
Series [2] concerns the target B1. Nature of the series: cryo-EM structure.
Series [3] concerns the target B4. Nature of the series: cryo-EM structure.
The target in series [4] is B3. Nature of the series: crystal structure.
Series [5] concerns the molecule itself. In words: crystal structure. This is another data set of the same source.
The target in series [6] is T1, T4 clamp loader (gp44/gp62), wild type;T4 sliding clamp gp45 (bacteriophage T4;bacteriophage T4, UniProt P04526;P04527;P04525 1-319;1-187;1-228, |).
T1 sequence 1: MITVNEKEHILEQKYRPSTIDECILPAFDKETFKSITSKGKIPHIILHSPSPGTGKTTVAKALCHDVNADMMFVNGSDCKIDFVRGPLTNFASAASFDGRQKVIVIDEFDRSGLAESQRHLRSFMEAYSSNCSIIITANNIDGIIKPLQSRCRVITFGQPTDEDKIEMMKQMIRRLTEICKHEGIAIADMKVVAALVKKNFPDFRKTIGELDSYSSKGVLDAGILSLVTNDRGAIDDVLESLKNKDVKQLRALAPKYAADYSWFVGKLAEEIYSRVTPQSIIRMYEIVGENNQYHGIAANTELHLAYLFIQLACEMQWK
T1 sequence 2: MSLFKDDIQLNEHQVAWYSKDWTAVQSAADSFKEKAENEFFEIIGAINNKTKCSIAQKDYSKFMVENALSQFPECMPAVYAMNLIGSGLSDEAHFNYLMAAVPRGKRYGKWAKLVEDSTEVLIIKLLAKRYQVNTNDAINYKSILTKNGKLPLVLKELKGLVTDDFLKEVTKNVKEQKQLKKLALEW
T1 sequence 3: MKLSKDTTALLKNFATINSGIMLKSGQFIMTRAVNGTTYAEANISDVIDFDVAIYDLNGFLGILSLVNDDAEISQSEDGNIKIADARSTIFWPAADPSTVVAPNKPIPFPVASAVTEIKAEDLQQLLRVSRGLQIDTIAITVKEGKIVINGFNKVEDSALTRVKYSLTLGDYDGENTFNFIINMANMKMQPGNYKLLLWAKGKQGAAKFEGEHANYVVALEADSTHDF
Nature of the series: fluorescence anisotropy.

Series [7] deals with T2, T4 clamp loader D110C/G143R;T4 sliding clamp gp45 (bacteriophage T4;bacteriophage T4, UniProt P04526;P04527;P04525 1-319;1-187;1-228, D110C;G143R|).
T2 sequence 1: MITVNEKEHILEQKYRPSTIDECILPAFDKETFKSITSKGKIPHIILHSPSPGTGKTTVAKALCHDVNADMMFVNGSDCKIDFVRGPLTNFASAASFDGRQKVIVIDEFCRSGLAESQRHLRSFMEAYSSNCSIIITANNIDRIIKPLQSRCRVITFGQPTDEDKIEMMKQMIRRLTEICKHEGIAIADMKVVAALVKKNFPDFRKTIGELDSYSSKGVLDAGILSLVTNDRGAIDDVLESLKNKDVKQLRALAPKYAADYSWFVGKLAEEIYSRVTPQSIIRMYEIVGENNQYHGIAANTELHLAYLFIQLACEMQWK
T2 sequence 2: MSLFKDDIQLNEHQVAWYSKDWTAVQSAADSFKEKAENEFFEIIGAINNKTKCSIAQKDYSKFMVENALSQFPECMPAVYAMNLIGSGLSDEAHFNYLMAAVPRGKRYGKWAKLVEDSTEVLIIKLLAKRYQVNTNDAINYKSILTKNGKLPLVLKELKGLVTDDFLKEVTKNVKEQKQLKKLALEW
T2 sequence 3: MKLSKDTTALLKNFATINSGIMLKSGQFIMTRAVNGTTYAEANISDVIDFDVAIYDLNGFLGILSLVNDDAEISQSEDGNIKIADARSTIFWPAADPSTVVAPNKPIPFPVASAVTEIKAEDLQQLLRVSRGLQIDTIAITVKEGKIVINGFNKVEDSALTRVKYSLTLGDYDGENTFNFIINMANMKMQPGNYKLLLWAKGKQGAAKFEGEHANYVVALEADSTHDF
In words: fluorescence anisotropy. A general note: Polarisation of emitted light reports the rotation of a fluorescent probe.

Series [8] addresses T3, T4 clamp loader D110C/P50K (P50K*);T4 sliding clamp gp45 (bacteriophage T4;bacteriophage T4, UniProt P04526;P04527;P04525 1-319;1-187;1-228, P50K;D110C|).
T3 sequence 1: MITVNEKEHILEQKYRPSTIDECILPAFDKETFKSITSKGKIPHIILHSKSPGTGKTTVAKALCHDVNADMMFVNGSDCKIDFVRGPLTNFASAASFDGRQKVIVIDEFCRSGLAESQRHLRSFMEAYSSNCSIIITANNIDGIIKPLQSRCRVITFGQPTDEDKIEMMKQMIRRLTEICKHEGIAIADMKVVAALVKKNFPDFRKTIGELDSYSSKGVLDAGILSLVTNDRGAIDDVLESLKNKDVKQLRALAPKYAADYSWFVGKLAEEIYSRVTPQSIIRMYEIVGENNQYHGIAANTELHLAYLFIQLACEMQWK
T3 sequence 2: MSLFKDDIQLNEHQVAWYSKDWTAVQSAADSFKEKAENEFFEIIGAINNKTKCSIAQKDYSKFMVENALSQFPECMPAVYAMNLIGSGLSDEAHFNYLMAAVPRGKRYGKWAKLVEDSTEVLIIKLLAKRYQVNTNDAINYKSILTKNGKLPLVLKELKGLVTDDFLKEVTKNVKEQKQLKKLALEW
T3 sequence 3: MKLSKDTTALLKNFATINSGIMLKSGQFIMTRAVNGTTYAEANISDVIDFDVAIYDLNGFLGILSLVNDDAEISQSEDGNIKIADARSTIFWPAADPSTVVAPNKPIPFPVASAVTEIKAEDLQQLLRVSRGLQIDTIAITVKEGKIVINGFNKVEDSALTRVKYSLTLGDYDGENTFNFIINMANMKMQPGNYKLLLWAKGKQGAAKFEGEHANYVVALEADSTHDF
Nature of the series: fluorescence anisotropy.

Where two headings read alike, the source gives them in different places.

Take B1: the binding result in “crystal structure [1]” is “binds”.

B2: T4 bacteriophage clamp-loader clasp subunit gp62 (natural protein)
chain: MSLFKDDIQLNEHQVAWYSKDWTAVQSAADSFKEKAENEFFEIIGAINNKTKCSIAQKDYSKFMVENALSQFPECMPAVYAMNLIGSGLSDEAHFNYLMAAVPRGKRYGKWAKLVEDSTEVLIIKLLAKRYQVNTNDAINYKSILTKNGKLPLVLKELKGLVTDDFLKEVTKNVKEQKQLKKLALEW
Regarding B2, the binding result in series [2], in series [3] and in series [4] was “binds” each time.
For B3, in “crystal structure [5]”, the binding result is reported as “binds”.
Consider B4, for which, in “crystal structure [5]”, the binding result is “binds”.

B5: TAMRA primer-template DNA (dsDNA)
DNA 1: TTTTTTTTTTTTATGTACTCGTAGTGTCTG
DNA 2: GCAGACACTACGAGTACATA
As a reminder, the Kd is the free concentration of one partner at which half of the binding sites on the other are occupied at equilibrium, for simple one-to-one binding. Consider B5, for which the equilibrium dissociation constant (Kd) in series [6] is approximately 40 nM. In addition, the binding result in series [7] and in series [8] was “binds” throughout.
